PMC5809500
Blank lines part the entries; values can stand above or below the substance they belong to.

Key:
[1] = biological target: hFcRn coupled to the affinity column (analytical hFcRn affinity chromatography) (UniProt P55899); assay: analytical hFcRn affinity chromatography; hFcRn coupled to the column; 50 µl hIgG1 variant (1 mg/ml) injected, eluted by a linear pH gradient from pH 6.0 to 8.8 within 110 min (20 mM MES, 140 mM NaCl / 20 mM Tris/HCl, 140 NaCl)
[2] = biological target: Truncated monomeric His-tagged hFcRn (three extracellular domains of the hFcRn HC with human β2-microglobulin) (human) (UniProt P55899)
[3] = biological target: WT anti-NIP hIgG1 (chimeric hIgG1 with mouse lambda light chain, hIgG1 constant HC and a VH specific for NIP) (human | mouse); assay: MST; 20 nM NT-647-labelled hIgG1 variant constant, hFcRn titrated (60,000–0.3 nM); PBS, 0.01% Tween 20, pH 7.4; 25 °C; Monolith NT.115
[4] = biological target: anti-NIP hIgG1-KF (H433K/N434F) (human | mouse); assay: as above
[5] = biological target: anti-NIP hIgG1-LS (M428L/N434S) (human | mouse); assay: as above
[6] = biological target: anti-NIP hIgG1-YTE (M252Y/S254T/T256E) (human | mouse); assay: as above
[7] = biological target: WT anti-NIP hIgG1 (chimeric hIgG1 with mouse lambda light chain, hIgG1 constant HC and a VH specific for NIP) (human | mouse); assay: MST; 20 nM NT-647-labelled hIgG1 variant constant, hFcRn titrated (60,000–0.3 nM); 100 mM phosphate buffer, 150 mM NaCl, 0.01% Tween 20, pH 5.5; 25 °C; Monolith NT.115
[8] = biological target: anti-NIP hIgG1-KF (H433K/N434F) (human | mouse); assay: as above
[9] = biological target: anti-NIP hIgG1-YTE (M252Y/S254T/T256E) (human | mouse); assay: as above
[10] = biological target: anti-NIP hIgG1-YTE/KF (M252Y/S254T/T256E/H433K/N434F) (human | mouse); assay: as above

pH of the elution peak from the hFcRn column [1]: 7 pH
Substance: WT anti-NIP hIgG1 (chimeric hIgG1 with mouse lambda light chain, hIgG1 constant HC and a VH specific for NIP) (antibody)

reduction of recycling of WT anti-hexon hIgG1 (500 nM) by HMEC1-hFcRn cells (HERA, pH 7.4) with 2 µM YTE/KF; the pair blocked is WT hIgG1 and hFcRn [2]: 50%
Substance: anti-NIP hIgG1-YTE/KF (M252Y/S254T/T256E/H433K/N434F) (antibody)

Kd [3]: > 60000 nM
Kd [4]: 3300 nM
Kd [5]: 7000 nM
Kd [6]: > 20000 nM
Kd [7]: 964 nM
Kd [8]: 53.4 nM
Kd [9]: 166 nM
Kd [10]: 9.3 nM
Substance: Truncated monomeric His-tagged hFcRn (three extracellular domains of the hFcRn HC with human β2-microglobulin) (from UniProt P55899 24-297; P61769 21-119) (receptor)
